Source: patent US20130157953A1, “TREATMENT OF CARDIAC CONDITIONS” (Zealand Pharma A/S, priority 2010, published 2013)
Numbered stars: 1 amine (or outer) side, 2 acyl side, 3 side chain; on linkers, the order of the positions; unused ones are H or OH. Bridge positions count the residues as written; N and C are the ends. Square brackets hold non-standard residues; d marks the D form. Side chains are listed from the residue outwards. Peptide text beside a SMILES is read from it. * marks the point of attachment. γGlu = O=C(O)[C@H](CCC(=O)[*:2])N[*:1]; εLys = N[C@@H](CCCCN[*:1])C(=O)[*:2]; Palmitoyl = CCCCCCCCCCCCCCCC(=O)*; Lauroyl = CCCCCCCCCCCC(=O)*; Aib = CC(C)(N)C(=O)O; Aoc = NCCCCCCCC(=O)O

Experiments:
human GLP-1R = biological target: T1, human GLP-1R (Homo sapiens, UniProt P43220); experiment: cAMP formation in HEK293 cells expressing human GLP-1R; format: cell-based; conditions: 15 min at 37° C.
T1 construct: expressed in transfected cells; host or cells: HEK293
T1 sequence (P43220 24-463): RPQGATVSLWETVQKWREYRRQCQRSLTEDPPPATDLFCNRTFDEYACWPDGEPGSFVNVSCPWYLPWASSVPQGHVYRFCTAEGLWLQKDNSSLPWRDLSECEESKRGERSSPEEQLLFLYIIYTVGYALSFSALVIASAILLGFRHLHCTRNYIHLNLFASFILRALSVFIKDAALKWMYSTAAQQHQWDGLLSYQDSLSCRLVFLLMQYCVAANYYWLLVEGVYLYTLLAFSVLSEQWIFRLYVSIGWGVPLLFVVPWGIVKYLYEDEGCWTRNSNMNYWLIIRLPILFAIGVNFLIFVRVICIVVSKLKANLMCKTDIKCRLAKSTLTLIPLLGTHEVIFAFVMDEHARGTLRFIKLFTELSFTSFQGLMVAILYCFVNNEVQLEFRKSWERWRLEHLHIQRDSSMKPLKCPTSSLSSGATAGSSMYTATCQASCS
Source text: Similarly, activation of the GLP-1 receptor by a GLP-1 agonist will stimulate cellular cAMP formation. Thus, production of cAMP in suitable cells expressing one of these two receptors can be used to monitor the relevant receptor activity.
The skilled person will be aware of suitable assay formats, and examples are provided below. […] (Where sequences of precursor proteins are referred to, it should of course be understood that assays may make use of the mature protein, lacking the signal sequence).
On the day of analysis, growth medium was removed and the cells washed once with 200 μl Tyrode buffer. Cells were incubated in […] containing increasing concentrations of test peptides, 100 μM IBMX, and 6 mM glucose for 15 min at 37° C. The reaction was stopped by addition of 25 μl 0.5 M HCl and incubated on ice for 60 min. The cAMP content was estimated using the FlashPlate® cAMP kit from Perkin-Elmer. EC50 values were estimated by computer aided curve fitting.

[1] = biological target: human glucagon receptor (Glucagon-R) (human, UniProt P47871 26-477); experiment: cell-based or functional assay
Chain of human glucagon receptor (Glucagon-R) (P47871 26-477): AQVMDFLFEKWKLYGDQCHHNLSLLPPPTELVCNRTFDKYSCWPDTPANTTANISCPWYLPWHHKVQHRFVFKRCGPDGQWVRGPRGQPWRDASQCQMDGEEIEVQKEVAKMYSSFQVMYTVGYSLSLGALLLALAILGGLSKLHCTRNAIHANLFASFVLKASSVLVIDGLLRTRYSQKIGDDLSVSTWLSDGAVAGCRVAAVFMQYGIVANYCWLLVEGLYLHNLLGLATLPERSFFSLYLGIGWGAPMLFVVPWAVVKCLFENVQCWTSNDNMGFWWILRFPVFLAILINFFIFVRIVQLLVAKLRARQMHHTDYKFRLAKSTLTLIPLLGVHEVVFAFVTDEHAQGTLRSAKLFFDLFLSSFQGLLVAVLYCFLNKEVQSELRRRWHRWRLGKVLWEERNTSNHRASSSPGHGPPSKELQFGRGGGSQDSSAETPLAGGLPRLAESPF

[2] = biological target: human glucagon-like peptide 1 receptor (GLP-1R) (human, UniProt P43220 24-463); experiment: cell-based or functional assay

## CC(C)C[C@H](NC(=O)[C@H](CC(C)C)NC(=O)[C@H](Cc1c[nH]c2ccccc12)NC(=O)[C@H](CCC(=O)O)NC(=O)[C@@H](NC(=O)[C@H](Cc1ccccc1)NC(=O)[C@H](CC(=O)O)NC(=O)[C@H](Cc1c[nH]cn1)NC(=O)[C@H](C)NC(=O)[C@H](C)NC(=O)[C@H](CCCCN)NC(=O)[C@H](CO)NC(=O)[C@H](CC(=O)O)NC(=O)[C@H](CC(C)C)NC(=O)[C@H](Cc1ccc(O)cc1)NC(=O)[C@H](CCCCN)NC(=O)[C@H](CO)NC(=O)[C@H](Cc1ccc(O)cc1)NC(=O)[C@H](CC(=O)O)NC(=O)[C@H](CO)NC(=O)[C@@H](NC(=O)[C@H](Cc1ccccc1)NC(=O)[C@@H](NC(=O)CNC(=O)[C@H](CCC(N)=O)NC(=O)[C@@H](CO)NC(=O)[C@@H](N)Cc1c[nH]cn1)[C@@H](C)O)[C@@H](C)O)C(C)C)C(=O)N[C@@H](CCCNC(=N)N)C(=O)N[C@@H](C)C(N)=O [Compound 44] (H-H[dS]QGTFTSDYSKYLDSKAAHDFVEWLLRA-NH2)
Human GLP-1R
  EC50: 0.09 nM

## CCCCCCCCCCCCCCCC(=O)N[C@@H](CCC(=O)NCCCC[C@H](NC(=O)[C@H](CC(=O)O)NC(=O)[C@H](CC(C)C)NC(=O)[C@H](Cc1ccc(O)cc1)NC(=O)[C@H](CCCCN)NC(=O)[C@H](CO)NC(=O)[C@H](Cc1ccc(O)cc1)NC(=O)[C@H](CC(=O)O)NC(=O)[C@H](CO)NC(=O)[C@@H](NC(=O)[C@H](Cc1ccccc1)NC(=O)[C@@H](NC(=O)CNC(=O)[C@H](CCC(N)=O)NC(=O)[C@H](CO)NC(=O)[C@@H](N)Cc1c[nH]cn1)[C@@H](C)O)[C@@H](C)O)C(=O)N[C@@H](CCCCN)C(=O)N[C@@H](C)C(=O)N[C@@H](C)C(=O)N[C@@H](Cc1c[nH]cn1)C(=O)N[C@@H](CC(=O)O)C(=O)N[C@@H](Cc1ccccc1)C(=O)N[C@H](C(=O)N[C@@H](CCC(=O)O)C(=O)N[C@@H](Cc1c[nH]c2ccccc12)C(=O)N[C@@H](CC(C)C)C(=O)N[C@@H](CC(C)C)C(=O)N[C@@H](CCCNC(=N)N)C(=O)N[C@@H](C)C(N)=O)C(C)C)C(=O)O [Compound 202] (H-HSQGTFTSDYSKYLDK([γGlu-Palmitoyl])KAAHDFVEWLLRA-NH2)
Human GLP-1R
  EC50: 0.2 nM

## CCCCCCCCCCCCCCCC(=O)N[C@@H](CCC(=O)NCCCC[C@H](NC(=O)[C@H](CO)NC(=O)[C@H](CC(=O)O)NC(=O)[C@H](CC(C)C)NC(=O)[C@H](Cc1ccc(O)cc1)NC(=O)[C@H](CCCCN)NC(=O)[C@H](CO)NC(=O)[C@H](Cc1ccc(O)cc1)NC(=O)[C@H](CC(=O)O)NC(=O)[C@H](CO)NC(=O)[C@@H](NC(=O)[C@H](Cc1ccccc1)NC(=O)[C@@H](NC(=O)CNC(=O)[C@H](CCC(N)=O)NC(=O)C(C)(C)NC(=O)[C@@H](N)Cc1c[nH]cn1)[C@@H](C)O)[C@@H](C)O)C(=O)N[C@@H](C)C(=O)N[C@@H](C)C(=O)N[C@@H](Cc1c[nH]cn1)C(=O)N[C@@H](CC(=O)O)C(=O)N[C@@H](Cc1ccccc1)C(=O)N[C@H](C(=O)N[C@H]1CCC(=O)NCCCC[C@@H](C(=O)N[C@@H](C)C(N)=O)NC(=O)[C@H](CC(C)C)NC(=O)[C@H](CC(C)C)NC(=O)[C@H](Cc2c[nH]c3ccccc23)NC1=O)C(C)C)C(=O)O [Compound 210] (H-H[Aib]QGTFTSDYSKYLDSK([γGlu-Palmitoyl])AAHDFVEWLLKA-NH2; lactam 24-28)
Human GLP-1R
  EC50: 0.08 nM

B1: Compound 214 (peptide)
peptide: H-H[Aib]QGTFTSDYSKYLDSK([γGlu-Lauroyl])AAHDFVEWLLSA-NH2
SMILES: CCCCCCCCCCCC(=O)N[C@@H](CCC(=O)NCCCC[C@H](NC(=O)[C@H](CO)NC(=O)[C@H](CC(=O)O)NC(=O)[C@H](CC(C)C)NC(=O)[C@H](Cc1ccc(O)cc1)NC(=O)[C@H](CCCCN)NC(=O)[C@H](CO)NC(=O)[C@H](Cc1ccc(O)cc1)NC(=O)[C@H](CC(=O)O)NC(=O)[C@H](CO)NC(=O)[C@@H](NC(=O)[C@H](Cc1ccccc1)NC(=O)[C@@H](NC(=O)CNC(=O)[C@H](CCC(N)=O)NC(=O)C(C)(C)NC(=O)[C@@H](N)Cc1c[nH]cn1)[C@@H](C)O)[C@@H](C)O)C(=O)N[C@@H](C)C(=O)N[C@@H](C)C(=O)N[C@@H](Cc1c[nH]cn1)C(=O)N[C@@H](CC(=O)O)C(=O)N[C@@H](Cc1ccccc1)C(=O)N[C@H](C(=O)N[C@@H](CCC(=O)O)C(=O)N[C@@H](Cc1c[nH]c2ccccc12)C(=O)N[C@@H](CC(C)C)C(=O)N[C@@H](CC(C)C)C(=O)N[C@@H](CO)C(=O)N[C@@H](C)C(N)=O)C(C)C)C(=O)O
[1]
  EC50 (nM) GuR; cAMP content, HEK293 cells expressing the human glucagon receptor: 0.78 nM
[2]
  EC50 (nM) GLP-1R; cAMP content, HEK293 cells expressing human GLP-1R: 0.14 nM

B2: Compound 209 (peptide)
peptide: H-H[Aib]QGTFTSDYSKYLDSKAAHDFVEWLLK([γGlu-Palmitoyl])A-NH2
SMILES: CCCCCCCCCCCCCCCC(=O)N[C@@H](CCC(=O)NCCCC[C@H](NC(=O)[C@H](CC(C)C)NC(=O)[C@H](CC(C)C)NC(=O)[C@H](Cc1c[nH]c2ccccc12)NC(=O)[C@H](CCC(=O)O)NC(=O)[C@@H](NC(=O)[C@H](Cc1ccccc1)NC(=O)[C@H](CC(=O)O)NC(=O)[C@H](Cc1c[nH]cn1)NC(=O)[C@H](C)NC(=O)[C@H](C)NC(=O)[C@H](CCCCN)NC(=O)[C@H](CO)NC(=O)[C@H](CC(=O)O)NC(=O)[C@H](CC(C)C)NC(=O)[C@H](Cc1ccc(O)cc1)NC(=O)[C@H](CCCCN)NC(=O)[C@H](CO)NC(=O)[C@H](Cc1ccc(O)cc1)NC(=O)[C@H](CC(=O)O)NC(=O)[C@H](CO)NC(=O)[C@@H](NC(=O)[C@H](Cc1ccccc1)NC(=O)[C@@H](NC(=O)CNC(=O)[C@H](CCC(N)=O)NC(=O)C(C)(C)NC(=O)[C@@H](N)Cc1c[nH]cn1)[C@@H](C)O)[C@@H](C)O)C(C)C)C(=O)N[C@@H](C)C(N)=O)C(=O)O
[1]
  EC50 (nM) GuR; cAMP content, HEK293 cells expressing the human glucagon receptor: 0.27 nM
[2]
  EC50 (nM) GLP-1R; cAMP content, HEK293 cells expressing human GLP-1R: 0.27 nM

B3: Compound 217 (peptide)
peptide: H-H[Aib]QGTFTSDYSKYLDSK([εLys-Palmitoyl])AAHDFVEWLLSA-NH2
SMILES: CCCCCCCCCCCCCCCC(=O)NCCCC[C@H](N)C(=O)NCCCC[C@H](NC(=O)[C@H](CO)NC(=O)[C@H](CC(=O)O)NC(=O)[C@H](CC(C)C)NC(=O)[C@H](Cc1ccc(O)cc1)NC(=O)[C@H](CCCCN)NC(=O)[C@H](CO)NC(=O)[C@H](Cc1ccc(O)cc1)NC(=O)[C@H](CC(=O)O)NC(=O)[C@H](CO)NC(=O)[C@@H](NC(=O)[C@H](Cc1ccccc1)NC(=O)[C@@H](NC(=O)CNC(=O)[C@H](CCC(N)=O)NC(=O)C(C)(C)NC(=O)[C@@H](N)Cc1c[nH]cn1)[C@@H](C)O)[C@@H](C)O)C(=O)N[C@@H](C)C(=O)N[C@@H](C)C(=O)N[C@@H](Cc1c[nH]cn1)C(=O)N[C@@H](CC(=O)O)C(=O)N[C@@H](Cc1ccccc1)C(=O)N[C@H](C(=O)N[C@@H](CCC(=O)O)C(=O)N[C@@H](Cc1c[nH]c2ccccc12)C(=O)N[C@@H](CC(C)C)C(=O)N[C@@H](CC(C)C)C(=O)N[C@@H](CO)C(=O)N[C@@H](C)C(N)=O)C(C)C
[1]
  EC50 (nM) GuR; cAMP content, HEK293 cells expressing the human glucagon receptor: 0.39 nM
[2]
  EC50 (nM) GLP-1R; cAMP content, HEK293 cells expressing human GLP-1R: 0.09 nM

B4: Compound 216 (peptide)
peptide: H-H[Aib]QGTFTSDYSKYLDSK([Aoc-Palmitoyl])AAHDFVEWLLSA-NH2
SMILES: CCCCCCCCCCCCCCCC(=O)NCCCCCCCC(=O)NCCCC[C@H](NC(=O)[C@H](CO)NC(=O)[C@H](CC(=O)O)NC(=O)[C@H](CC(C)C)NC(=O)[C@H](Cc1ccc(O)cc1)NC(=O)[C@H](CCCCN)NC(=O)[C@H](CO)NC(=O)[C@H](Cc1ccc(O)cc1)NC(=O)[C@H](CC(=O)O)NC(=O)[C@H](CO)NC(=O)[C@@H](NC(=O)[C@H](Cc1ccccc1)NC(=O)[C@@H](NC(=O)CNC(=O)[C@H](CCC(N)=O)NC(=O)C(C)(C)NC(=O)[C@@H](N)Cc1c[nH]cn1)[C@@H](C)O)[C@@H](C)O)C(=O)N[C@@H](C)C(=O)N[C@@H](C)C(=O)N[C@@H](Cc1c[nH]cn1)C(=O)N[C@@H](CC(=O)O)C(=O)N[C@@H](Cc1ccccc1)C(=O)N[C@H](C(=O)N[C@@H](CCC(=O)O)C(=O)N[C@@H](Cc1c[nH]c2ccccc12)C(=O)N[C@@H](CC(C)C)C(=O)N[C@@H](CC(C)C)C(=O)N[C@@H](CO)C(=O)N[C@@H](C)C(N)=O)C(C)C
[1]
  EC50 (nM) GuR; cAMP content, HEK293 cells expressing the human glucagon receptor: 0.46 nM
[2]
  EC50 (nM) GLP-1R; cAMP content, HEK293 cells expressing human GLP-1R: 0.24 nM

B5: Compound 210 (peptide)
peptide: H-H[Aib]QGTFTSDYSKYLDSK([γGlu-Palmitoyl])AAHDFVEWLLKA-NH2
modifications: lactam 24-28
SMILES: CCCCCCCCCCCCCCCC(=O)N[C@@H](CCC(=O)NCCCC[C@H](NC(=O)[C@H](CO)NC(=O)[C@H](CC(=O)O)NC(=O)[C@H](CC(C)C)NC(=O)[C@H](Cc1ccc(O)cc1)NC(=O)[C@H](CCCCN)NC(=O)[C@H](CO)NC(=O)[C@H](Cc1ccc(O)cc1)NC(=O)[C@H](CC(=O)O)NC(=O)[C@H](CO)NC(=O)[C@@H](NC(=O)[C@H](Cc1ccccc1)NC(=O)[C@@H](NC(=O)CNC(=O)[C@H](CCC(N)=O)NC(=O)C(C)(C)NC(=O)[C@@H](N)Cc1c[nH]cn1)[C@@H](C)O)[C@@H](C)O)C(=O)N[C@@H](C)C(=O)N[C@@H](C)C(=O)N[C@@H](Cc1c[nH]cn1)C(=O)N[C@@H](CC(=O)O)C(=O)N[C@@H](Cc1ccccc1)C(=O)N[C@H](C(=O)N[C@H]1CCC(=O)NCCCC[C@@H](C(=O)N[C@@H](C)C(N)=O)NC(=O)[C@H](CC(C)C)NC(=O)[C@H](CC(C)C)NC(=O)[C@H](Cc2c[nH]c3ccccc23)NC1=O)C(C)C)C(=O)O
[1]
  EC50 (nM) GuR; cAMP content, HEK293 cells expressing the human glucagon receptor: 0.26 nM
[2]
  EC50 (nM) GLP-1R; cAMP content, HEK293 cells expressing human GLP-1R: 0.08 nM
